These results are taken from the RNAGym collection of RNA variant scans (doi:10.1093/molbev/msab373).

The labels stand for the following.
B1: Azoarcus group I ribozyme (parent)
chain: GUGCCUUGCGCCGGGAAACCACGCAAGGGAUGGUGUCAAAUUCGGCGAAACCUAAGCGCCCGCCCGGGCGUAUGGCAACGCCGAGCCAAGCUUCGGCGCCUGCGCCGAUGAAGGUGUAGAGACUAGACGGCACCCACCUAAGGCAAACGCUAUGGUGAAGGCAUAGUCCAGGGAGUGGCGAAAGUCACACAAACCGG

This data set covers variants of B1. Nature of the data set: reverse-splicing fitness (ratio to wild type); higher = more active; in vitro selection; Mg2+ level not given. In short, it runs like this: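 An in vitro group I ribozyme library with randomized positions was T7-transcribed and gel-purified. In triplicate, 10 pmol RNA in EPPS pH 7.5 was reacted with 50 pmoles of a 30-nt RNA substrate for 1 h at 37 °C across several added MgCl2 levels (1–48 mM), then stopped with EDTA. Products were reverse transcribed from a substrate-complementary primer, PCR-amplified and sequenced (HiSeq 4000). Fitness is a variant's read proportion after selection over that before, normalised to wild type.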
For GUGCCUUGCGCCGGGAAACCACGCAAGGGAUGGUGUCAAAUUCGGCGAAACCUAAGCGCCCGCCCGGGCGUAUGGCAACGCAGAGCCAAGCUUCGGCGCCUGCGCCGAUGCAGGUGUAGCGACUAGACGGCACCCACCUAAGGCUAACGCUAUGGUGAAGGCAUAGUCUAGGGAGCGGCGAAAGUCACACAAACCGG [C82A A111C A120C A145U C169U U176C], the reverse-splicing fitness came out at 0.0141.
To GUGCCUUGCGCCGGGAAACCACGCAAGGGAUGGUGUCAAAUUCGGCGAAACCUAAGCGCCCGCCCGGGCGUAUGGCAACGCUGAGCCAAGCUUCGGCGCCUGCGCCGAUGCAGGUGUAGGGACUAGACGGCACCCACCUAAGGCCAACGCUAUGGUGAAGGCAUAGUCGAGGGAGAGGCGAAAGUCACACAAACCGG [C82U A111C A120G A145C C169G U176A] belongs 0.0216; to GUGCCUUGCGCCGGGAAACCACGCAAGGGAUGGUGUCAAAUUCGGCGAAACCUAAGCGCCCGCCCGGGCGUAUGGCAACGCGGAGCCAAGCUUCGGCGCCUGCGCCGAUGAAGGUGUAGCGACUAGACGGCACCCACCUAAGGCAAACGUUAUGGUGAAGGCAUAGUCCAGGGAGAGGCGAAAGUCACACAAACCGG [C82G A120C C150U U176A], 0.0429.
To GUGCCUUGCGCCGGGAAACCACGCAAGGGAUGGUGUCAAAUUCGGCGAAACCUAAGCGCCCGCCCGGGCGUAUGGCAACGCAGAGCCAAGCUUCGGCGCCUGCGCCGAUGCAGGUGUAGGGACUAGACGGCACCCACCUAAGGCGAACGUUAUGGUGAAGGCAUAGUCUAGGGAGGGGCGAAAGUCACACAAACCGG [C82A A111C A120G A145G C150U C169U U176G] belongs 0.00525; to GUGCCUUGCGCCGGGAAACCACGCAAGGGAUGGUGUCAAAUUCGGCGAAACCUAAGCGCCCGCCCGGGCGUAUGGCAACGCUGAGCCAAGCUUCGGCGCCUGCGCCGAUGGAGGUGUAGAGACUAGACGGCACCCACCUAAGGCUAACGGUAUGGUGAAGGCAUAGUCCAGGGAGGGGCGAAAGUCACACAAACCGG [C82U A111G A145U C150G U176G], 0.00442.
Next, GUGCCUUGCGCCGGGAAACCACGCAAGGGAUGGUGUCAAAUUCGGCGAAACCUAAGCGCCCGCCCGGGCGUAUGGCAACGCGGAGCCAAGCUUCGGCGCCUGCGCCGAUGAAGGUGUAGAGACUAGACGGCACCCACCUAAGGCGAACGUUAUGGUGAAGGCAUAGUCCAGGGAGCGGCGAAAGUCACACAAACCGG [C82G A145G C150U U176C]: 0.291; GUGCCUUGCGCCGGGAAACCACGCAAGGGAUGGUGUCAAAUUCGGCGAAACCUAAGCGCCCGCCCGGGCGUAUGGCAACGCUGAGCCAAGCUUCGGCGCCUGCGCCGAUGUAGGUGUAGGGACUAGACGGCACCCACCUAAGGCUAACGCUAUGGUGAAGGCAUAGUCCAGGGAGUGGCGAAAGUCACACAAACCGG [C82U A111U A120G A145U]: 0.0147.
Consider GUGCCUUGCGCCGGGAAACCACGCAAGGGAUGGUGUCAAAUUCGGCGAAACCUAAGCGCCCGCCCGGGCGUAUGGCAACGCAGAGCCAAGCUUCGGCGCCUGCGCCGAUGGAGGUGUAGAGACUAGACGGCACCCACCUAAGGCAAACGUUAUGGUGAAGGCAUAGUCCAGGGAGAGGCGAAAGUCACACAAACCGG [C82A A111G C150U U176A], for which the reverse-splicing fitness worked out at 0.0842.
Next, GUGCCUUGCGCCGGGAAACCACGCAAGGGAUGGUGUCAAAUUCGGCGAAACCUAAGCGCCCGCCCGGGCGUAUGGCAACGCUGAGCCAAGCUUCGGCGCCUGCGCCGAUGGAGGUGUAGAGACUAGACGGCACCCACCUAAGGCUAACGUUAUGGUGAAGGCAUAGUCAAGGGAGGGGCGAAAGUCACACAAACCGG [C82U A111G A145U C150U C169A U176G]: 0.00546; GUGCCUUGCGCCGGGAAACCACGCAAGGGAUGGUGUCAAAUUCGGCGAAACCUAAGCGCCCGCCCGGGCGUAUGGCAACGCCGAGCCAAGCUUCGGCGCCUGCGCCGAUGUAGGUGUAGUGACUAGACGGCACCCACCUAAGGCUAACGCUAUGGUGAAGGCAUAGUCCAGGGAGUGGCGAAAGUCACACAAACCGG [A111U A120U A145U]: 0.607.
To GUGCCUUGCGCCGGGAAACCACGCAAGGGAUGGUGUCAAAUUCGGCGAAACCUAAGCGCCCGCCCGGGCGUAUGGCAACGCCGAGCCAAGCUUCGGCGCCUGCGCCGAUGCAGGUGUAGCGACUAGACGGCACCCACCUAAGGCGAACGGUAUGGUGAAGGCAUAGUCUAGGGAGUGGCGAAAGUCACACAAACCGG [A111C A120C A145G C150G C169U] belongs 0.0264; to GUGCCUUGCGCCGGGAAACCACGCAAGGGAUGGUGUCAAAUUCGGCGAAACCUAAGCGCCCGCCCGGGCGUAUGGCAACGCAGAGCCAAGCUUCGGCGCCUGCGCCGAUGAAGGUGUAGCGACUAGACGGCACCCACCUAAGGCCAACGAUAUGGUGAAGGCAUAGUCUAGGGAGCGGCGAAAGUCACACAAACCGG [C82A A120C A145C C150A C169U U176C], 0.0111.
Take GUGCCUUGCGCCGGGAAACCACGCAAGGGAUGGUGUCAAAUUCGGCGAAACCUAAGCGCCCGCCCGGGCGUAUGGCAACGCCGAGCCAAGCUUCGGCGCCUGCGCCGAUGGAGGUGUAGGGACUAGACGGCACCCACCUAAGGCAAACGAUAUGGUGAAGGCAUAGUCUAGGGAGUGGCGAAAGUCACACAAACCGG [A111G A120G C150A C169U]: the reverse-splicing fitness turned out to be 0.0298.
Take GUGCCUUGCGCCGGGAAACCACGCAAGGGAUGGUGUCAAAUUCGGCGAAACCUAAGCGCCCGCCCGGGCGUAUGGCAACGCGGAGCCAAGCUUCGGCGCCUGCGCCGAUGCAGGUGUAGAGACUAGACGGCACCCACCUAAGGCGAACGAUAUGGUGAAGGCAUAGUCCAGGGAGCGGCGAAAGUCACACAAACCGG [C82G A111C A145G C150A U176C]: the reverse-splicing fitness was 0.0396.
Turning to GUGCCUUGCGCCGGGAAACCACGCAAGGGAUGGUGUCAAAUUCGGCGAAACCUAAGCGCCCGCCCGGGCGUAUGGCAACGCGGAGCCAAGCUUCGGCGCCUGCGCCGAUGCAGGUGUAGCGACUAGACGGCACCCACCUAAGGCAAACGCUAUGGUGAAGGCAUAGUCCAGGGAGGGGCGAAAGUCACACAAACCGG [C82G A111C A120C U176G], the reverse-splicing fitness is 0.00944.
